The nature of this series: soluble on expression in E. coli; label from the status in PepcDB or PDB records.
Consider “MAHHHHHHMISRINIDGSVNGRFCKKINNNIDCKLNFNTYAKNDTRNMYEMSLEVNKPLYTYNFKSIWQGAWIFNTSYTQLLTKKLQAGVDLTYIASNCASIGSFGLRYNHKNNVLTMQIVRQPNFKSPEFMLNQTHLYKIQYAKKISDRLSLGTELEITPQTKESAMRLGWDYSFRHAKVQGSIDTSGKISVFTQDYSGFGVSGYIDYLNNDYKFGFMMHISPSQEQPQTAA”, for which the “soluble on expression in E. coli” value is “not soluble”.
With “MSLPMSLTIKLFLMFLLIESSIAKQKPDLDHVNVDMSEIDYSSFFKQMIEGWEREANEKYPFRPDLNNDDSSYFLQSRDQVYVNRSFFVQGKAQAYIRQWNNWKPYRDLGNKIGVLWPTQDNDCPKIEAMNPLTYMIHGLSRRYNILPLLK” the entry was “soluble”; with “MKKFLALLLSVIIVFSLTACGGKNSGNNSNNSSNNNSSNNTGGKKIKIGMVTDVGGVNDGSFNQSAWEGLQRAQKELGVEVRYAESATDADYAPNIEAFIDEGYDLIICVGYMLADATRKAAEANPNQKFAIIDDASIDLPNVTCLMFEQSQASYLVGLVAGKMTKTNKVGFVVGMVSQTMNEFGYGYLAGVKDANPNATILQFNANSFSSTETGKSAATTMITNGADVIFHAAGGTGLGVIEGCKDAGKWAIGVDSDQSPLAPENILTSAMKRVDNACFDIAKAVKEGNVKPGIITYDLKSAGVDIAPTTTNLPKEVLDYVNQAKQDIINGKITVPKTKAEFEAKYGNIYELDD”, “soluble”; with “MNITFKFNFMSYKHYFSPKHKPEITQAITITEPAIIFRLNKTYSTNLSQQEIYDITRSDWILGHRREKAEYGFAAFKGVVLQVYRIDRWDFSGKVTDVGRQRWFFEGKVATEMQDYINGNISHYFKKGDRSPTKYLNCLEHHHHHH”, “not soluble”.
In the case of “AVELAEEVTNLKQVRTMLEAIIQSSDEAISVVDENGIGLLINKAYTKMTGLSEKEVIGKPANTDISEGESMHLKVLETRRPVRGVRMKVGPNEKEVIVNVAPVIVDGILKGSVGVIHDVS” it was “not soluble”; in that of “MSLKNLDINIVSEVRRIDNGRLDIPVYFSVCGDDASQYTGTKKQMGKGASPIQSEASACMELAERFSFFSFSKNADNFLLGDYEEMRAAGYPVLDMEHLLKSVHDTHTTVAQLEKLLAGIPMQWTWATKMTGEEGEVLIPFSWFFAINEFNGPSAGNTQEEAALQGLCEIVERDVCSRINRDKLPTAKIDVETIKDPVAVELLEKFAKNNIEVYLNDFSLETGIASVGALAIDRSTFPEKSEIVYTAGTTPNPEKAIIRAITEVAQLAGDFNTGSNYIASGLPKPLSMSEVTYLTETADQVTIDEMVDISDDNIYTEVKNCLDSLKNNGFDVYMIDVCHPQLQIPALYTIIPGAHFRERSMICNAGLFCAKLLVERIEDPAEQEVKLGEMSVLEGHHHHHH”, “not soluble”.
In the case of “SLERPPALAMPMPTEGTPPPLSGTPIPVPAYFRHAEPGFSLKRPRGLSRSLPPPPPAKGSIPISRLFPPRTPGWHQLQPRRVSFRGEASETLQSPGYDPSRPESFFQQSFQRLSRLGHGSYGEVFKVRSKEDGRLYAVKRSMSPFRGPKDRARKLAEVGSHEKVGQHPCCVRLEQAWEEGGILYLQTELCGPSLQQHCEAWGASLPEAQVWGYLRDTLLALAHLHSQGLVHLDVKPANIFLGPRGRCKLGDFGLLVELGTAGAGEVQEGDPRYMAPELLQGSYGTAADVFSLGLTILEVACNMELPHGGEGWQQLRQGYLPPEFTAGLSSELRSVLVMMLEPDPKLRATAEALLALPVLRQPRAWGVLWCMAAEALSRGWALWQALLALLCWLWHGLAHPASWLQPLGPPATPPGSPPCSLLLDSSLSSNWDDDSLGPSLSPEAVLARTVGSTSTPRSRCTPRDALDLSDINSEPPRGSFPSFEPRNLLSLFEDTLDPT” it was “soluble”.
“MRYAAYYAPRPDSALWRAGCEWLGYDAAGGAQLPRPDVEGVEAGELAGLTREAARYGWHATLKAPFALRPGVGEDALLLQTSMLARRFQPFALSLQVGWLGDFLALRPAGPCAELDELAAACSVSLEGLADRHAPLRPREGLDPRQQALYRRWGYPYVFEQFRFHLTLSDRLDRESAAAVLIERGARRHFAGLLQQVAVAGVTLFVEREQGGPFRYLAYCGFNGEVARHGR”: the “soluble on expression in E. coli” value is recorded as “not soluble”.
In the case of “MIGNILVAHGMRKGNQNEALEEFIGTLLKDEQYYYELAFLESETQNLEIIMEKMIKQGITKFRIVPLLIFSAMHYISDIPQILKEMKARYPQIDSKMSAPLGTHPYMKTLVENRIAEEKVSEGSTKATIVIAHGNGSGRFTKAHDELKAFVKTLDSHHPVYARALYGTLAFKNDLDKISEQYDELVIVPLFLFDGRLVNKVKRLLGEMTLHSQLHITPSINFDPILRLIIRERLEALDILEHHHHHH” it was “soluble”; in that of “VRLSNPDILLNIHVSHEEVTLSLDSSGDSLHKRGYRVAETTAPLNEVLAAGILLKAGWDGSTDLIDPMCGSGTFLIEAALIACNIAPGIYRRGFAFQRWADFDLDLYDELFHDDSAERVFDHIIYGSDILPQAVAAARSNVERAGLGRYISLSVLPMQQRPKPESKAMLVMNPPYGERIKVEDMQQLYTMIGERLKHNYAGCSAWILAFKPEHFNHIGLRQSHREKLMNGALECELRGYELFEGRR”, “not soluble”.
Turning to “MGSDKIHHHHHHMQYREFGRTGVKTSLLGFGAMRLPVIGEDHSNIDEEKAIEMIRYAIDHGVNYVDTAYPYHGGNSEKVVGKALKDGYREKVFLATKSPVWQVEKHEDFERILDEQLEKLQTDHVDMYLMHALNKERWEKIKNLRFSDFFEKAKAKGKIRFAGFSFHDSYPVFKEIVDGYDWDFCQIQLNYMDVNYQAGLRGLKYAGSKGLAVVIMEPLKGGKLARLPEKVMEILRKYNKNWSPVELSFRWIGHHPEVSTILSGMSTLEQVKQNIDIMSKITPGNLTDEDMKMIEEIRKTLESFAVINCTQCGYCMPCPNGVDIPGNFRLYNETVMFEDWEGGRRTYKWLESQKSAASFCVECGECLSKCPQKLDIPNLLKKVHRELAEVK”, the “soluble on expression in E. coli” value is “not soluble”.
As to “MPIEIERRFLIGNDNWRQYADEPLLLRQGYLSVEKERTVRVRIAGKQAWLTLKGYISEISRSEFEYEIPLADAEKMMETMCPFKMEKWRYPVRWGGSLFEIDVFLGDNAPLVVAEIELPDENADFDRPDWLGREITADGMFTNAYLSRHPFSSWKNAV”, the “soluble on expression in E. coli” value was “not soluble”.
For the sequence “MSLAEITDRDTALFESGIKLGALYHQFVGSPVNLSTAGSLEAAIRDSISLQPCVQSITVAIDREMVRGRINDFGYCELEGRMLGVEAVIRYGTAVVHVGMRYDAEMDYPMMSVQQIEQIGQIRQIEQDKQTEQIRQIRQTEVGEGHHHHHH”, the “soluble on expression in E. coli” value is listed as “soluble”.
In the case of “MVEQCPALKSRIKPMLSQKRLVYKPLGSFYQVLSAEAYTKHGLNVHGVVFDELHAQPNRDLYDVMLHGSGDARKQPLFFLITTAGTDRNSICWEVHQKAEDILQGRKIDPTFYPVIYSASDTDDWTSEKVWRKVNPSLGITVDIEKLRVACENAKQNPAEENLFRQLRLNQWVKQSVRWMPMDKWDKCAFPVDAEKLRGRTCYGGLDLSSTTDITAFVLVFPPLDESDKYQILTFFWIPEENIDQRVRRDHVPYDVWERQGFLYTTEGNVVHYGFIETFIEELGMKYNIKEIAFDRWGAIQMTQNLEALGFTVVPFGQGFKDMSPPTKELMKLTLEERIAHGGHPVLRWMMDNIYVKTDPAGNIKPDKEKSTERIDGAVALIMALDRALRHDGDERNGSIYDERGILFL” it was “soluble”; in that of “MILKPIGVVKSPFKTQNDAPRQGRFSDAVSEIAIFDEYADGLHKIENLRHIIVLYWMDKASRDKLRVVPPGETEERGVFTTRSPSRPNPIGLCVVEILEVERNRLKVRWLDALDGSPVIDIKKYSPEIDCVNQLEGQQPLEHHHHHH”, “soluble”; in that of “MKKIHYTDNYLLKPYHPVTIHVAGAGGTGSQVITNLARMNVALQALGHPGLHVTVFDPDIITEANIGRQLFSEMELGQGKATAAVTRVNRFFGTTWTAENCRYPVRKTQENGDDRTKPANIIITCTDNTRSRLELWRFLKKYRETSVNNERAVYYWMDFGNAQTTGQVFIGTVRNKIRQPASKEFMPVPGMNVITEEVNYSTIEEKDSEPSCSLAEALERQDLYINSILAQVGCDILWRMFKEGRTLYRGAYINLDTLRVNPIPV”, “not soluble”.
With “MSLRILITGNMGYIGPVVARHLRQQYPDAWLVGLDRGWFAHCLSDPRQLPEVVLDQQWFGDVRDLTAQQLSGFDGVVHLAAISNDAMGKRFEQVTDAINCRASVAVAQAAAQAGVKHFVFASSCSVYGAAADGTPRSESSAVAPLTAYAHSKIDTERALAQLETDMVITCLRFATACGASPRLRLDLVLNDFVASAVANGTVEVLSDGSPWRPLIHVRDMARAIDWALGRTPLAGGRFLAVNAGAEQWNVQIRDLAQAVGAAMPSATVSISTTAPADNRSYRVDFSLFQRLAPQHQPQQTLQSTITELRDDLLRAGFADGDFRQSSDFIRLRILQQLVDSGALAADLRAEGHHHHHH”, the “soluble on expression in E. coli” value is “soluble”.
Turning to “MEFQKKKQKVIQVKEIKFRPGTDEGDYQVKLRSLIRFLEEGDKAKITLRFRGREMAHQQIGMEVLNRVKDDLQELAVVESFPTKIEGRQMIMVLAPKKKQ”, the “soluble on expression in E. coli” value is reported as “soluble”.
For “MSLKVKSIKAITLSMPFSHGGKKVIFHGKEWKSLEFNLIRLETDKGIVGWGEAFGFSSWKAVRVAIEEMVAPMIIGKDMSNIPELLLNLQKSLHLFGRYGITMFAISGVEIALWDAFGKEKNKPVHELLGKKNNDIFKAYSSLFRYGDPKIIEQKCKQSLDDGYRAIKLHEIENNCIEAGRKGTGDLPMMLDTNCPWTYEQTLAKKDFLKSMNLTWLEEPIYPPEDYQTLAKLNKELGIPLACGENACTEYEFKSMIDHKAVSFVQPSVIKVGGIYEMFKIINIAEDKNISVMPHTAYFGPGFLATLQLAALMKKETYIERFYLDIDEEFYPNFKKALNGKYNLPKGPGLGIDLDYKRLSKYEIEGHHHHHH”, the “soluble on expression in E. coli” value is given as “soluble”.
With “MAQSEISKREKGRALITVANNVAGFNLWKRLVEEGYDVDAILPSEDKYNLLLSELVSRKNKKYDFIVNTVDRHDYAVVTNKMLKWLYPTEKIIFISSDLVYEPRPGKKKENDNAYPPTMEGKYFLEAESALDVNSDLVLRVGLVTGRCVPNILTNTINLSRANMSIDLSGAVVRNFISNADLSEYIIRLLDKNGIYNASAKSMTPRDFALELCAKINVNCKLRRTTDDKVFDYSMDTTKIELTTGYYTKDIFANISSGLYLLG” the entry was “soluble”; with “MTVEEYQQTVAQWLEVAKDPHFNKAYTELTYKPMREMVTYLQDHDFKVYIVSGGGVDFMRTWAPEVYGIPEEQIIGSALKYKYDYNNSNPTVTKLGEILTIDDKAGKVENIQHIIGKKPVLAIGNSDGDHAMMQWATSQPNSMAMIVHHTDEAREWKYDR”, “not soluble”.
On to “MGKLFGTFGVRGIANEKITPEFAMKIGMAFGTLLKREGRKKPLVVVGRDTRVSGEMLKEALISGLLSVGCDVIDVGIAPTPAVQWATKHFNADGGAVITASHNPPEYNGIKLLEPNGMGLKKEREAIVEELFFKEDFDRAKWYEIGEVRREDIIKPYIEAIKSKVDVEAIKKRKPFVVVDTSNGAGSLTLPYLLRELGCKVITVNAQPDGYFPARNPEPNEENLKEFMEIVKALGADFGVAQDGDADRAVFIDENGRFIQGDKTFALVADAVLKEKGGGLLVTTVATSNLLDDIAKKHGAKVMRTKVGDLIVARALYENNGTIGGEENGGVIFPEHVLGRDGAMTVAKVVEIFAKSGKKFSELIDELPKYYQIKTKRHVEGDRHAIVNKVAEMARERGYTVDTTDGAKIIFEDGWVLVRASGTEPIIRIFSEAKSKEKAQEYLNLGIELLEKALS”, for which the “soluble on expression in E. coli” value is reported as “soluble”.

(Values after the DeepSol protein solubility set.)
